Source: the supplement of paper PMC9732359
± gives the uncertainty stated by the source.

Experiment: protein stability index of a GFP-peptide fusion (yeast GPS) (PSI 1-4); higher = more stable; sorted into four equal gates, so the index is relative within each strain
Summary of the method: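 Each library plasmid carries Cherry plus GFP with a tiled 17-residue yeast protein peptide fused downstream, and the pooled library was carried in yeast. Mid-log cultures in leucine-free medium were sorted into four equal gates by GFP/Cherry ratio. Reads from Illumina sequencing of PCR-amplified plasmids from each gate were assigned to strains by barcodes. Per peptide, the protein stability index was computed as the summed products of gate read frequency and gate number.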

| Sequence | protein stability index (doa10∆) | protein stability index (pdr5∆) | protein stability index (san1∆) | protein stability index (ubr1∆) |
| --- | --- | --- | --- | --- |
| FFAAIRFVLSDDYSNLK [SMC3] | 2.27 ± 0.091 | 2.68 ± 0.13 | 2.56 ± 0.1 | 2.7 ± 0.07 |
| VAALALLFAINSYQPSP [SMC1] | 1.62 ± 0.059 | 1.55 ± 0.073 | 1.89 ± 0.11 | 2.42 ± 0.055 |
| PGTNGKVKKPLKYLSVE [PRE7] | – | 3.5 ± 0.14 | 3.15 ± 0.09 | 3.24 ± 0.12 |
| SASHILIPASDLSWSKQ [PRP8] | 1.48 ± 0.069 | 1.93 ± 0.058 | 1.53 ± 0.082 | 1.95 ± 0.038 |
| KLRDHEPDLESQISKAE [SMC4] | 2.07 ± 0.13 | 1.31 ± 0.21 | 3.16 ± 0.16 | – |
| QETQHGNITRGLAVGLA [RPN2] | 3.08 ± 0.074 | 2.55 ± 0.096 | 2.73 ± 0.062 | 2.88 ± 0.04 |
| HKKDRLQYLPLYAVSTF [SIR4] | 1.59 ± 0.035 | 1.66 ± 0.035 | 1.35 ± 0.054 | 1.89 ± 0.037 |
| PPKHTELLLTTLSVSHG [SSN2] | 1.79 ± 0.038 | 1.8 ± 0.038 | 1.55 ± 0.07 | 1.61 ± 0.027 |
| ASTGSGKTLAFVIPILI [PRP28] | 1.47 ± 0.069 | 1.29 ± 0.079 | 1.48 ± 0.17 | 3.09 ± 0.1 |
| LSDVAFYVQDVYKDNLS [RPO31] | 1.8 ± 0.12 | 1.7 ± 0.12 | – | 1.22 ± 0.14 |
| DITGDIRNEGSDAEEEE [ISW2] | 2.83 ± 0.16 | 3.1 ± 0.1 | 3.05 ± 0.089 | 2.91 ± 0.068 |
| DFKTDVDEPMTSAVELG [YJL039C/NUP192] | 2.17 ± 0.073 | 2.28 ± 0.068 | 2.54 ± 0.13 | 2.85 ± 0.06 |
| KQDCVDWFTYSYFYRRI [BRR2] | 1.69 ± 0.036 | 1.32 ± 0.032 | 1.51 ± 0.053 | 1.41 ± 0.029 |
| VWAPTQKCFKLTHRLGG [POP1] | 2.2 ± 0.056 | 1.88 ± 0.056 | 2.3 ± 0.085 | 2.47 ± 0.054 |
| LLDVVKGTEASNDIIDK [YDL116W/NUP84] | 2.08 ± 0.19 | 2.51 ± 0.14 | 1.92 ± 0.15 | 1.47 ± 0.041 |
| DNIDEKVVKAIRIYFTE [NUT1] | 3.12 ± 0.092 | 3 ± 0.061 | 3.04 ± 0.048 | 2.39 ± 0.036 |
| FIERNFTPQEIEYCSAQ [FAS2] | – | 3.54 ± 0.26 | 2.72 ± 0.26 | 2.73 ± 0.22 |
| EMKIGSIESKLEEHKNH [SMC1] | 3.03 ± 0.15 | 3.22 ± 0.16 | 2.96 ± 0.18 | 3.01 ± 0.099 |
| KRAFTKKVASANATAAE [RPL16A] | 2.73 ± 0.068 | 2.69 ± 0.06 | 2.82 ± 0.04 | 2.55 ± 0.037 |
| KKGEYARFKSKDERDTW [SMC3] | – | 3.23 ± 0.17 | 2.69 ± 0.098 | 3.32 ± 0.17 |
| NSIDSTSRIELELKNIG [ECM29] | 3.24 ± 0.087 | 3.15 ± 0.062 | 2.8 ± 0.05 | 2.72 ± 0.044 |
| VNLEDNTQDLLLLLSLF [YML103C/NUP188] | 1.68 ± 0.13 | 2.7 ± 0.12 | 2.41 ± 0.14 | 2.47 ± 0.091 |
| RNDSTVNDSVISAPSME [BRN1] | 2.71 ± 0.085 | 2.95 ± 0.083 | 2.78 ± 0.061 | 2.96 ± 0.061 |
| ADLKKGKDLSPAINYTK [QCR2] | 3.26 ± 0.13 | 3.36 ± 0.08 | 3.32 ± 0.086 | 3.23 ± 0.065 |
| TRSLKYGKLRNGMFCQV [RRP4] | 1.42 ± 0.081 | 1.11 ± 0.1 | 1.09 ± 0.13 | 1.07 ± 0.12 |

| Sequence | protein stability index (doa10∆) | protein stability index (pdr5∆) | protein stability index (san1∆) | protein stability index (ubr1∆) |
| --- | --- | --- | --- | --- |
| FQAVIQKSINHPPDFKR [SNF2] | 2.8 ± 0.12 | 2.98 ± 0.19 | 3.02 ± 0.14 | 3.19 ± 0.11 |
| TSTKPSFSFGAPESMKS [YOR098C/NUP1] | 2.97 ± 0.053 | 3.07 ± 0.062 | 3.15 ± 0.043 | 3.1 ± 0.046 |
| TRAMEYLKFRELPAGQN [RPB2] | 2.4 ± 0.072 | 2.75 ± 0.084 | 3.13 ± 0.071 | 3.02 ± 0.13 |
| QALIHGLNRHYYSLNID [RPN11] | 1.98 ± 0.15 | 2.4 ± 0.1 | 2.44 ± 0.068 | 2.42 ± 0.068 |
| YGPPGTGKTLLARACAA [RPT5] | 2.5 ± 0.13 | 2.53 ± 0.081 | 2.29 ± 0.18 | – |
| NEEGDWSCIVVENWIID [ITC1] | 2.38 ± 0.074 | 2.48 ± 0.082 | 2.68 ± 0.12 | 2.95 ± 0.11 |
| ARSIDVEKGVNPTKSKE [ECM29] | 3.32 ± 0.26 | 3.51 ± 0.24 | – | 3.2 ± 0.29 |
| QPAQPRESRIVSTEGNV [RPL21A] | 2.49 ± 0.07 | 2.83 ± 0.074 | 3.04 ± 0.069 | 2.87 ± 0.086 |
| VKKASGEIVSINQINEA [RPL20A] | 2.89 ± 0.1 | 2.82 ± 0.092 | 2.81 ± 0.062 | 2.79 ± 0.066 |
| VHEWEVSKPSLLHETND [PRP8] | 3.25 ± 0.11 | 3.05 ± 0.14 | – | 3.23 ± 0.072 |
| HTEDTVNESRNSDDIID [SRB5] | 2.31 ± 0.061 | 2.52 ± 0.056 | 2.43 ± 0.071 | 2.46 ± 0.055 |
| TQEIRPVNTGVLHVSAK [RRP40] | 2.72 ± 0.12 | 2.91 ± 0.1 | 2.74 ± 0.081 | 3.01 ± 0.11 |
| RVKIANTSAATVHTATS [SSN2] | 2.86 ± 0.1 | 2.65 ± 0.051 | 2.39 ± 0.071 | 2.52 ± 0.094 |
| IVISLKNTMFEKSDALV [SMC1] | 2.42 ± 0.071 | 2.36 ± 0.062 | 2.55 ± 0.059 | 2.47 ± 0.042 |
| EGWFYKRAASVARHIYM [RPS19A] | 1.97 ± 0.16 | 2.51 ± 0.22 | 1.99 ± 0.14 | 2.33 ± 0.17 |
| VLTNIEVYRTSLNTKKN [SMC3] | 2.61 ± 0.17 | 3.08 ± 0.19 | – | 2.85 ± 0.12 |
| YNLLVKISLHKREYLEV [RPN5] | 1.5 ± 0.1 | 1.21 ± 0.12 | 1.34 ± 0.17 | 1.43 ± 0.092 |
| KVFVPPKSKSLPNEMSQ [RPO31] | 3.1 ± 0.13 | 3.14 ± 0.12 | 3.09 ± 0.16 | 2.87 ± 0.13 |
| IQIMANIDQEGSKQADR [PGD1] | 3.2 ± 0.052 | 3.11 ± 0.064 | 3.08 ± 0.054 | 3.08 ± 0.04 |
| YSKIKHLGLDDPQDVFN [SIR2] | 2.77 ± 0.18 | 3.22 ± 0.19 | 3.3 ± 0.14 | 3.24 ± 0.096 |
| RAFTKKVSSASAAASES [RPL16B] | 2.42 ± 0.065 | 2.19 ± 0.052 | 2.16 ± 0.065 | 1.85 ± 0.054 |
| TQEEVELPLEDFKAKYC [RPB5] | 3.33 ± 0.11 | 3.25 ± 0.11 | 3.58 ± 0.11 | 3.28 ± 0.071 |
| IDLDHKRFLILQGEVEN [SMC4] | 1.58 ± 0.073 | 2.09 ± 0.087 | 1.81 ± 0.09 | 2.46 ± 0.057 |
| LLHETNDSFKGLITNKM [PRP8] | 3 ± 0.16 | 2.8 ± 0.071 | 3.06 ± 0.12 | 3.24 ± 0.12 |
| MVLVQDLLHPTAASEAR [RPS27A] | 2.45 ± 0.19 | 3.37 ± 0.089 | 3.17 ± 0.19 | 3.17 ± 0.11 |
